This note sets out measurements from article PMC6336796 (Nature Communications, 2019).

This assay concerns the target T1, Flag-CENP-E (UniProt Q02224 1-2701).
T1 construct: CENP-E; Primers are in Supplementary Data 3; also called Flag-CENP-E protein; source: HEK293T, transfected, mitotic cells
Nature of the assay: pull-down; Flag-CENP-E purified from mitotic HEK293T lysate and eluted with 3x Flag peptide, incubated with Myc-GFP or Myc-HOIP bound to anti-c-Myc affinity gel; blot with anti-Flag. The note with it: both partners purified.

T1 sequence (Q02224 whole entry): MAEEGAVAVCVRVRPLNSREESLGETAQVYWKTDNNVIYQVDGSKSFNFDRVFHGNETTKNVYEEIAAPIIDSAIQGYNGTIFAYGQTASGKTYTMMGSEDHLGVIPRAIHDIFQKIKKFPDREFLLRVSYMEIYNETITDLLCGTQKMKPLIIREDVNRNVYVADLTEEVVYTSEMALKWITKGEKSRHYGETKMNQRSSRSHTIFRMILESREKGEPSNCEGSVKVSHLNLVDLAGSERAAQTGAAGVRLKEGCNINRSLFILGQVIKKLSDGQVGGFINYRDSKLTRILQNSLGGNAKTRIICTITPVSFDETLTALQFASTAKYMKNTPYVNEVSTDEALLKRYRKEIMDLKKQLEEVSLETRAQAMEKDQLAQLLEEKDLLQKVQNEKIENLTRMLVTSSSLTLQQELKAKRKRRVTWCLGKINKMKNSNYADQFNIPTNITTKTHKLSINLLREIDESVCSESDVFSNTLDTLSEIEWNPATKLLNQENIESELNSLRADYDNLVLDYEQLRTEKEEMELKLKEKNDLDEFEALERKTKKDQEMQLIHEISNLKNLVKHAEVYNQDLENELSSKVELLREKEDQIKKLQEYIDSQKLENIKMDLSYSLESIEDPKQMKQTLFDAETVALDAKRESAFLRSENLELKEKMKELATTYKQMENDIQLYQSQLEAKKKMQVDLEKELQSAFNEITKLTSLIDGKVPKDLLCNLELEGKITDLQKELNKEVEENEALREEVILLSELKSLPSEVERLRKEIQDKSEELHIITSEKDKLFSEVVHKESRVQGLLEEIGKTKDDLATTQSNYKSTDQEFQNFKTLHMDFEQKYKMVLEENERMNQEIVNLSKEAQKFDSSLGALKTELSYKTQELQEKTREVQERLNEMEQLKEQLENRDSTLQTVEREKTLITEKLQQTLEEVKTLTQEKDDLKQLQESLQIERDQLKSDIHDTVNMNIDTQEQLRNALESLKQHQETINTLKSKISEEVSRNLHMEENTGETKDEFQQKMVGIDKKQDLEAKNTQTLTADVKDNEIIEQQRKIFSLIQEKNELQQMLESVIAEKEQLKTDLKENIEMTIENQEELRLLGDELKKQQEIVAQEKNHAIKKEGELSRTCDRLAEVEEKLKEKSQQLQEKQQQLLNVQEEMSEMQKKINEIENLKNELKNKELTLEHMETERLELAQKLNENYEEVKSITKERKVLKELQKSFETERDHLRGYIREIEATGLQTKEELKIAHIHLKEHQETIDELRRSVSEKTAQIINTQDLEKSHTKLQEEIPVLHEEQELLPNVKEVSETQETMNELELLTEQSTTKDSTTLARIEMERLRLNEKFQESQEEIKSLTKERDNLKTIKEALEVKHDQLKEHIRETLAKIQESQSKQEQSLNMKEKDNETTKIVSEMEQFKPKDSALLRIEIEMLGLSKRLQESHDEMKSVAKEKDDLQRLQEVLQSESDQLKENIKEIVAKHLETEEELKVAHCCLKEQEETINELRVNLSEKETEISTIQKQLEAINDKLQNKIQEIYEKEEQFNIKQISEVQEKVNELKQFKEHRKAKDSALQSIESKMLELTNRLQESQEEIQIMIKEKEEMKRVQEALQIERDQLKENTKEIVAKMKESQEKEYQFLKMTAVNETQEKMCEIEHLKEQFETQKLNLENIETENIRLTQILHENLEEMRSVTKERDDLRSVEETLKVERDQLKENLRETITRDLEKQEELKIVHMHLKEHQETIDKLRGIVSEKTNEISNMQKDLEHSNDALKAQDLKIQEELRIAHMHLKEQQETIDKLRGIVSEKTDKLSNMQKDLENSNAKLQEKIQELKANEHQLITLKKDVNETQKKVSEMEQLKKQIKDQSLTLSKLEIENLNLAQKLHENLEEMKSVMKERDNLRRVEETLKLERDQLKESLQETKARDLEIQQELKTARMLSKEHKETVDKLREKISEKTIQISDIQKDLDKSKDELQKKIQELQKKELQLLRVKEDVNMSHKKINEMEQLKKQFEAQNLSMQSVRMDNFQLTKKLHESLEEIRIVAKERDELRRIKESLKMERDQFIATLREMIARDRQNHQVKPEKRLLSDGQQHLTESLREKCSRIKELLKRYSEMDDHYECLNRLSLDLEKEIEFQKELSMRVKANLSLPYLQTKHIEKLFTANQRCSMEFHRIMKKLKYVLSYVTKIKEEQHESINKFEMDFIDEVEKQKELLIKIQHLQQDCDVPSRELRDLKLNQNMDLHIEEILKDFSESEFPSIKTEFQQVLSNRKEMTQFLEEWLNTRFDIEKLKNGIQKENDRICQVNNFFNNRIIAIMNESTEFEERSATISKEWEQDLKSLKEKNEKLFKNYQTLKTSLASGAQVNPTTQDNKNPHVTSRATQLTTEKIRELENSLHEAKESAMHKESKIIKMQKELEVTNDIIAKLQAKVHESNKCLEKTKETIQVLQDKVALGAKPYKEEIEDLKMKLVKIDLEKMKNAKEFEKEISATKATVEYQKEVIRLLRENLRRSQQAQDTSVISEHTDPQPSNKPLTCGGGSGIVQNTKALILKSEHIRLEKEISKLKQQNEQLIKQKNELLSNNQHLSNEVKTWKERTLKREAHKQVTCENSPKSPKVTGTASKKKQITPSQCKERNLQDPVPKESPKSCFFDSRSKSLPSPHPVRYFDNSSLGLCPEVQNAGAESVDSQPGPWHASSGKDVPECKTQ

B1: Myc-HOIP (enzyme, UniProt Q96EP0 1-1072, looked up)
chain: MPGEEEERAFLVAREELASALRRDSGQAFSLEQLRPLLASSLPLAARYLQLDAARLVRCNAHGEPRNYLNTLSTALNILEKYGRNLLSPQRPRYWRGVKFNNPVFRSTVDAVQGGRDVLRLYGYTEEQPDGLSFPEGQEEPDEHQVATVTLEVLLLRTELSLLLQNTHPRQQALEQLLEDKVEDDMLQLSEFDPLLREIAPGPLTTPSVPGSTPGPCFLCGSAPGTLHCPSCKQALCPACDHLFHGHPSRAHHLRQTLPGVLQGTHLSPSLPASAQPRPQSTSLLALGDSSLSSPNPASAHLPWHCAACAMLNEPWAVLCVACDRPRGCKGLGLGTEGPQGTGGLEPDLARGRWACQSCTFENEAAAVLCSICERPRLAQPPSLVVDSRDAGICLQPLQQGDALLASAQSQVWYCIHCTFCNSSPGWVCVMCNRTSSPIPAQHAPRPYASSLEKGPPKPGPPRRLSAPLPSSCGDPEKQRQDKMREEGLQLVSMIREGEAAGACPEEIFSALQYSGTEVPLQWLRSELPYVLEMVAELAGQQDPGLGAFSCQEARRAWLDRHGNLDEAVEECVRTRRRKVQELQSLGFGPEEGSLQALFQHGGDVSRALTELQRQRLEPFRQRLWDSGPEPTPSWDGPDKQSLVRRLLAVYALPSWGRAELALSLLQETPRNYELGDVVEAVRHSQDRAFLRRLLAQECAVCGWALPHNRMQALTSCECTICPDCFRQHFTIALKEKHITDMVCPACGRPDLTDDTQLLSYFSTLDIQLRESLEPDAYALFHKKLTEGVLMRDPKFLWCAQCSFGFIYEREQLEATCPQCHQTFCVRCKRQWEEQHRGRSCEDFQNWKRMNDPEYQAQGLAMYLQENGIDCPKCKFSYALARGGCMHFHCTQCRHQFCSGCYNAFYAKNKCPEPNCRVKKSLHGHHPRDCLFYLRDWTALRLQKLLQDNNVMFNTEPPAGARAVPGGGCRVIEQKEVPNGLRDEACGKETPAGYAGLCQAHYKEYLVSLINAHSLDPATLYEVEELETATERYLHVRPQPLAGEDPPAYQARLLQKLTEEVPLGQSIPRRRK
notes: HOIP (RNF31) wild type; Construct supplied by Dr. Kazuhiro Iwai; also called RNF31; purified HOIP; source: HEK293T, transfected, mitotic cells
For B1, the binding result is “binds”.
